Assay [1] has as its target CXCR4, endogenous on feline cells (feline (endogenous in MCC)) (UniProt P56498).
For assay [2] the target is unchanged. The assay can be described thus: flow cytometry on cells; MCC cells stably transduced with fCD134, the CRD1 chimera, human CD134 or vector only were incubated with Fc-SU fusion proteins; bound protein detected with PE-anti-human IgG Fc; 10,000 events.
For assay [3], the target named is chimeric receptor bearing feline CD134 CRD1 in the context of human CD134, on cells (feline | human).

Sequence of UniProt P56498 (P56498 whole entry, the tested form may be a part): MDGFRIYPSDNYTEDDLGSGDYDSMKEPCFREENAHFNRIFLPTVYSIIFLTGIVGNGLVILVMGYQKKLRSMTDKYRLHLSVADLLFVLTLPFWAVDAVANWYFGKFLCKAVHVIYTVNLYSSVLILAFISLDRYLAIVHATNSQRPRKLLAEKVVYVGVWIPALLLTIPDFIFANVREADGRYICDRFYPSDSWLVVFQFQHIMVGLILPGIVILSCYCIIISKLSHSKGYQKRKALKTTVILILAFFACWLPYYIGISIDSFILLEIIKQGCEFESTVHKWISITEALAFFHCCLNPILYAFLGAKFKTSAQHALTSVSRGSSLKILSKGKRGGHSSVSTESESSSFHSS

Regarding “FIV CPG41 Env, wild type, on HIV(FIV) luciferase pseudotypes (natural protein)”, the entry of HIV(FIV) pseudotypes into MYA-1 cells with the CXCR4 antagonist AMD3100 at 0.1 μg/ml, fold reduction in assay [1] came to 5 fold.

With “FIV GL8 Env SU-Fc fusion protein, wild type”, the percent binding of Fc-SU (human CD134-expressing MCC cells) in assay [2] is 17.2%.

The substance “FIV GL8 Env T271I, on HIV(FIV) luciferase pseudotypes (natural protein)” yielded an infection of MCC-CRD1 cells by HIV(FIV) luciferase pseudotypes, fold reduction in assay [3] of 27 fold.

In turn, “FIV GL8 Env Δ2N double mutant (T271I and N342Y), on HIV(FIV) luciferase pseudotypes (natural protein)” gave an infection of MCC-CRD1 cells by HIV(FIV) luciferase pseudotypes, fold reduction in assay [3] of 47 fold.

For “FIV GL8 Env, wild type, on HIV(FIV) luciferase pseudotypes (natural protein)”, in assay [3], the infection of MCC-CRD1 cells by HIV(FIV) luciferase pseudotypes, fold less efficient than on MCC cells expressing CD134 is 300 fold. In addition, in assay [1], the entry of HIV(FIV) pseudotypes into MYA-1 cells with the CXCR4 antagonist AMD3100 at 0.1 μg/ml, fold reduction is 100 fold.

The values are drawn from PMC2563026.
